assay: soluble on expression in E. coli; label from the status in PepcDB or PDB records

Sequence | soluble on expression in E. coli
DPHAYEHNLKSWVGNTPVFATVNQLDLDEEQSTLLKGEVGVDWYWMGYEAGKYLAERHPKGSGKTNIALLLGPRTRGGTKPVTTGFYEAIKNSDIHIVDSFWADNDKELQRNLVQRVIDMGNIDYIVGSAVAIEAAISELRSADKTHDIGLVSVYLSHGVYRGLLRNKVLFAPTDKMVQQGRLSVMQAAHYLRHQPYEKQASPIIKPLTPKTLHDDTIEESLSPSEYRPTFSIKAVD | not soluble
MDAYLDYISGIWSKIDKKFHDQDISAKVAILQLVARPYYYWIQENPAQEKPVVEESQPRKQDNLREITSKYGDALQVDSDTVKIVKRLNTDEFNKLKEDLRQLGFLYDAQLRGFKKKQ | not soluble
MSIEQTLSQYLPSHPKPQGVTFTYGTAGFRMKADKLDYVTFTVGIIASLRSKYLQGKTVGVMITASHNPPEDNGVKVVDPLGSMLESSWEKYATDLANASPSPSNDSEGEKNSLVEVIKNLVSDLKIDLSIPANVVIARDSRESSPALSMATIDGFQSVPNTKYQDFGLFTTPELHYVTRTLNDPDFGKPTEDGYYSKLAKSFQEIYTICESNNEKIDITIDAANGVGAPKIQELLEKYLHKEISFTVVNGDYKQPNLLNFDCGADYVKTNQKLPKNVKPVNNKLYASFDGDADRLICYYQNNDNKFKLLDGDKLSTLFALFLQQLFKQIDPTKISLNIGVVQTAYANGSSTKYVEDVLKIPVRCTPTGVKHLHHEAENFDIGVYFEANGHGTVIFNPEAEKKIFDYKPNNDNEAKAIKVLQNFSQLINQTVGDAISDLLAVLIVVHYLKLSPSDWDNEYTDLPNKLVKVIVPDRSIFKTTNAERTLVEPKGMQDEIDKLVAQYPNGRSFVRASGTEDAVRVYAEADTQNNVEELSKAVSELVK | soluble
ALHEATRDLLGADSPSTVAAEVGAAIESILEFRINVIRVHRDGQLQPVHVNDKAEELLAERPTYDVGEGFPGEAFEEQQASVYTDIRDHDGGTALEPVVSWLYVPISEYGIISVGQTDPDAFDETDLNLVQIIASNAEVALQRLQKERELQRENDRLEQFASTVS | not soluble
MQEYSIDITLTHPDDVLALFGSNERHLKLIEAHLGVIVHARTERVQVIGEDEEAVELARLTIKALLVLVGRGMVVNTSDVVTALSMAESHQIDQFMALYEEEIIKDNYGKAIRVKTLGQKTYVDSVKRHDVVFGVGPAGTGKTFLAVTLAVTALKRGQVKRIILTRPAVEAGESLGFLPGDLKEKVDPYLRPVYDALYHILGKEQTTRLMERDVIEIAPLAYMRGRTLDDAFVILDEAQNTTIMQMKMFLTRLGFNSKMIVNGDTSQIDLPRNVKSGLIDATQKLQGIKQIDFVYFSAKDVVRHPVVADIIKAYETSSEEMKDLLKPKASDVEADYQPGLTKYPVIGQEHLEHHHHHH | not soluble
AGKTLYDKLWDMHLVKQRDDGSALIYIDRHILHEVTSPQAFEGLRLAGRKPWRIDANIATPDHNVPTTRTERKGGIAAIADEVSRLQVQTLDENCDDFGITEFKMNDVRQGIVHVVGPEQGATLPGMTVVCGDSHTSTHGAFGALAHGIGTSEVEHVLATQCLVAKKMKN | not soluble
GPGSMEFIMNSVYAIDPIYLLMSAVAQQMLAMAWFDCIVGQIDRYYVAADKGVRRVEHAITRYPGIMVSATTFACSLLRSLVVLTVVSMCNCSTLYQYQSAAMVAVMIGMMRVHRTFSCHRPIQIFVTETGYEMAAAMTAAVVCYYMKKYNF | soluble
MEGDGSDPEPPDAGEDSKSENGENAPIYCICRKPDINCFMIGCDNCNEWFHGDCIRITEKMAKAIREWYCRECREKDPKLEIRYRHKKSRERDGNERDSSEPRDEGGGRKRPVPDPDLQRRAGSGTGVGAMLARGSASPHKSSPQPLVATPSQHHQQQQQQIKRSARMCGECEACRRTEDCGHCDFCRDMKKFGGPNKIRQKCRLRQCQLRARESYKYFPSSLSPVTPSESLPRPRRPLPTQQQPQPSQKLGRIREDEGAVASSTVKEPPEATATPEPLSDEDLPLDPDLYQDFCAGAFDDHGLPWMSDTEESPFLDPALRKRAVKVKHVKRREKKSEKKVMERKEERYKRHRQKQKHKDKWKHPERADAKDPASLPQCLGPGCVRPAQPSSKYCSDDCGMKLAANRIYEILPQRIQQWQQSPCIAEEHGKKLLERIRREQQSARTRLQEMERRFHELEAIILRAKQQAVREDEESNEGDSDDTDLQIFCVSCGHPINPRVALRHMERCYAKYESQTSFGSMYPTRIEGATRLFCDVYNPQSKTYCKRLQVLCPEHSRDPKVPADEVCGCPLVRDVFELTGDFCRLPKRQCNRHYCWEKLRRAEVDLERVRVWYKLDELFEQERNVRTAMTNRAGLLALMLHQTIQHDPLTTDLRSSADR | soluble
MKLDQIDLNIIEELKKDSRLSMRELGRKIKLSPPSVTERVRQLESFGIIKQYTLEVDQKKLGLPVSCIVEATVKNADYERFKSYIQTLPNIEFCYRIAGAACYMLKINAESLEAVEDFINKTSPYAQTVTHVIFSEIDTKNGRG | soluble
MGSDKIHHHHHHADDSVKIGFITDMSGLYADIDGQGGLEAIRMAVADFGGKVNGKPITVVYADHQNKADIAASRAREWFDRDGVDMLIGGTNSATGLSMNTVAGEKKKVYISIGAGADTLTNEQCTPYTVHYAYDTTALAKGTGSAVTKQGGKTWYFLTADYAFGKALEKNTADVVKANGGQVLGAVRHPLSASDFSSFLLQAQASKAQILGLANAGGDTINSIKAAKEFGITKTMKLAALLVFIDDIHSLGLETTQGLVLTDSWYWNKDATTRKWAERYFDKMKKMPSSLQAADYSATMTYLNAVKAVGSTDSDKVMAQLKKTKIDDFYAKGYIRQDGSMIHDMYLMQVKTPAESREPWDYYKITATIPGEQAFTTKAETRCALWK | not soluble
QIQLVQSGPELKKPGETVRISCKASDYSFMTSGMQWVQQMPGKGLKWIGWLNTQSGVPEYAEDFKGRFAFSLETSATTAYLQINNLKNEDTATYFCATWGGNSAYWGQGTTLTVSSAKTTPPSVYPLAPGSAAQTNSMVTLGCLVKGYFPEPVTVTWNSGSLSSGVHTFPAVLQSDLYTLSSSVTVPSSTWPSETVTCNVAHPASSTKVDKKIVPRDC | soluble
MDLDQLDLNPRITAAVKRGRLKSVKEILCYSGPDLQRLTGLPSHDVQCLLRAASLHLRGSRVLSALHLFQQKESFPEQHQRLSLGCPVLDQFLGGGLPLEGITGLAGCSSAGKTQLALQLCLAVQFPRQYGGLEAGAVYICTEDAFPSKRLWQLIAQQRRLRTDAPEELIEKIRFSNHIFIEHAADVPHFVVSSTFRPQPSGRSSCSRWGPHCED | soluble
MCETCLIVIMDSSHDFSFADTFALQVATWFSDVFAQPTVVQRQAWAAISAGENALVVAPTGSGKTLAAFLWALNELVQGSGQTALLSRQAAGSAEVEASRAKGVKVVYISPLKALGVDVENNLRAPLTGINQVAARLGIDQSDITVGVRSGDTPASERSKQVRNPPDILITTPESLYLMLTSKARSILTTVDTVIVDEIHAMAGTKRGVHLALSLERLEHLAAQPVQRIGLSATVRPLDVVARFLGGDRPVEVINPPLEKKWQLAVHVPVDDMSDLPTPEPVSEIGEATIDDPLGLTTQPEGFAESALPAQGSMWTFIEQDVFDEVMEHRSTLVFVNSRRTAERLTSRLNELYAQRFQPEALSPALRRPPAQLMKSIDIAGEATAIIARAHHGSVSKDERALTEKMLKQGELRAVVSTSSLELGIDMGAVDKVIQVESPPSVASGLQRVGRAGHVVGAVSHGSFYPKHRADLVQTAVTVGRMTEGLIEELHVPTNALDVLVQHTVAAVAMDDLDVEDWYATVVRAYPYRDLPREAFDAAIDLTAGVYPSTDFAELRPKVIYDRITGTLSARPGAQRTAVINGGTIPDRGMFGVFLVGSGESGAPRRVGELDEEMVYESRVGDVFTLGASSWRIEEINKDQVLVTPAPGHTGRLPFWTGDQAGRPAELGKALGAFRRTLVADPSVVEGMGLDVRARSNVVAFIQQQQESTGVVPDEVTLVLERFRDELGDWRVVLHSPYGRGVNAAWALVAGAAFSQRTGMDAQPVASDDGIVLRVPESDAEPGADLFEIDPDTVEELVAQQVGNSALFAARFRECAARALLLPSRTPGKRAPLWQQRQRAAQLLDVARKYPSFPIVLETVRECLHDVYDLDALVELAAALKLRKVRIAEVTTQQP | not soluble
MAPEDGSLDRWQWYPKEKGEYSALYPRSWYEYKDVFKSELICEQFSPVWGGNYQESSYPLAVFDWTVHNPTDKPITLSIMLTWQNSVGWFTNAIKSPTVKLRDDGSPEYEYQPRWGDSTGNFNQWIQDGFRVGCLFNRVQPHEALREGEGQMCIASVSNPSVEVFYHNRWNPSGDGADVWDWFAGNGSLPDIQDETAAEPGEQIAGAICLRFTVRPGKTKKIPFLLAWDLPITEFAQGVTYYRRYTDFYGRNGKNVWSMIRTALKHSDTWRKKIEAWQAPILENPRLPDWLKMSLFNELYLLTQGGTLWTAATENDPVGQFGVCECMDYRWYESLDVRLYGSFGLLMHWPKLEQAVMLAFARAIPTEDPKERVIGYNLSLAPRKVKNATPHDLGAPNEHPWERSNYTAYQDCNLWKDLGSDFVLLVYRDFLLLPDADGEFLGECWPSIVAALDYLKGFDLDNDGIPENSGAPDQTFDDWRLQGISAYCGGLWIAALEAALVMGQYLLENPPQQTDLDAMEIQTAIARYETWLAQARSLYQDTLWNGEYYNLDSQSGSKVVMADQLCGQFYARLLNLPDVVEHHYAEKALAKVYDTCFLKFAHGELGAANGLLPDGSPQNPNDTHPLEVWTGINFGLAAFLIQMGMKEEALKMTETVVNQVYNNGLQFRTPEAITAVGTFRASHYLRAMAIWAVYGLLEGFSNLPIAPADDEVPTSDFYLEHHHHHH | not soluble
SLFKTKWFAREARSHAITDEELCRAILETEQGKADALGGGVFKKRLHQNRERAIILAKGVSNWFYTFLYAKQDMSNINSQELAGFREIAKHYAFLTKAQLTAMINTKELTEICYDCKN | not soluble
LTDDPGSGFTTVWNAVVSELNGDPKVDDGPSSDANLSAPLTPQQRAWLNLVQPLTIVEGFALLSVPSSFVQNEIERHLRAPITDALSRRLGHQIQLGVRIAPPATDEADDTTVPPSENPATTSPDTTTDNDEIDDSAAARGDNQHSWPSYFTERPHNTDSATAGVTSLNRRYTFDTFVIGASNRFAHAAALAIAEAPARAYNPLFIWGESGLGKTHLLHAAGNYAQRLFPGMRVKYVSTEEFTNDFINSLRDDRKVAFKRSYRDVDVLLVDDIQFIEGKEGIQEEFFHTFNTLHNANKQIVISSDRPPKQLATLEDRLRTRFEWGLITDVQPPELETRIAILRKKAQMERLAVPDDVLELIASSIERNIRELEGALIRVTAFASLNKTPIDKALAEIVLRDLIADANTMQISAATIMAATAEYFDTTVEELRGPGKTRALAQSRQIAMYLCRELTDLSLPKIGQAFGRDHTTVMYAQRKILSEMAERREVFDHVKELTTRIRQRSKR | soluble
MGSDKIHHHHHHMSKKQFLDQLWARMAQKGDFPTLQYCIDNVFKTLNSDLSVGEMASTVLSDFSLSQKVIRLANSAMYRSFGGEVTTVSRAIMVLGVDTITHLTLGVQVLDFFQGVAPNRPQAARALKQAIMAGEITRALNDARGILGGEEGVVCTLMHHVSRLLVIFYFPDEWDRIMALSADGAMSENDACREVIDISLDDLAKAAAFRWRLPALIADGMLGRELHEETVLETHADWLGAVASLSSDAAASILAEQPEEVVLEPLLTHAQKLGLEPSHVNVAIQQAGTLKASMARSEAPDTGVGSLPDDGGKPADTLTRLQQALAEIRQEGAGMTVSQLAPLVLESAMRALNFSHCFLMLLHPTNKRFGARLGFGEGMRDKLEKLSFEEGFVPDVFHFAMIAPKPLLIEDLRDKAVSHRVPRWYRDAMPDTRSVLLIPVKVRNRCVAMICGDWGATRIAGGLTDGELIAAGDLAGEIATAVLRSAPQR | not soluble
KIIEEFIDSLFSGVVETSETKQLKADLLANAEDRYEDLLSQGKSENEAIGTIISEFGTIDELMEELNLENKQVDEPNDS | not soluble
